Source: patent publication US20220089722A1 (NANTONG YICHEN BIOPHARMA, published 2022)

B1: IgFD-32(anti-CD3/EGFR) (bispecific antibody, human IgG1, kappa, lambda)
chain 1: EVQLVESGGGLVQPGGSLRLSCAASGFTFNTYAMNWVRQAPGKGLEWVARIRSKYNNYATYYADSVKDRFTISRDDSKNTLYLQMNSLRAEDTAVYYCVRHGNFGNSYVSWFAYWGQGTLVTVSSASTKGPQVQLQESGPGLVKPSETLSLTCTVSGGSVSSGDYYWTWIRQSPGKGLEWIGHIYYSGNTNYNPSLKSRLTISIDTSKTQFSLKLSSVTAADTAIYYCVRDRVTGAFDIWGQGTMVTVSSASTKGPSVFPLAPSSKSTSGGTAALGCLVKDYFPEPVTVSWNSGALTSGVHTFPAVLQSSGLYSLSSVVTVPSSSLGTQTYICNVNHKPSNTKVDKKVEPKSCDKTHTCPPCPAPPVAGPSVFLFPPKPKDTLMISRTPEVTCVVVDVSHEDPEVKFNWYVDGVEVHNAKTKPREEQYNSTYRVVSVLTVLHQDWLNGKEYKCKVSNKGLPSSIEKTISKAKGQPREPQVYTLPPCRDELTKNQVSLWCLVKGFYPSDIAVEWESNGQPENNYKTTPPVLDSDGSFFLYSKLTVDKSRWQQGNVFSCSVMHEALHNHYTQKSLSLSPGK
chain 2: not shown
notes: (ProA)/(CH1) = purification resin; also called IgFD-32(ProA); IgFD-32(CH1)
B2: IgFD-33(anti-CD3/EGFR) (bispecific antibody, human IgG1, kappa)
chain 1: QVQLQESGPGLVKPSETLSLTCTVSGGSVSSGDYYWTWIRQSPGKGLEWIGHIYYSGNTNYNPSLKSRLTISIDTSKTQFSLKLSSVTAADTAIYYCVRDRVTGAFDIWGQGTMVTVSSASTKGPEVQLVESGGGLVQPGGSLRLSCAASGFTFNTYAMNWVRQAPGKGLEWVARIRSKYNNYATYYADSVKDRFTISRDDSKNTLYLQMNSLRAEDTAVYYCVRHGNFGNSYVSWFAYWGQGTLVTVSSASTKGPSVFPLAPSSKSTSGGTAALGCLVKDYFPEPVTVSWNSGALTSGVHTFPAVLQSSGLYSLSSVVTVPSSSLGTQTYICNVNHKPSNTKVDKKVEPKSCDKTHTCPPCPAPPVAGPSVFLFPPKPKDTLMISRTPEVTCVVVDVSHEDPEVKFNWYVDGVEVHNAKTKPREEQYNSTYRVVSVLTVLHQDWLNGKEYKCKVSNKGLPSSIEKTISKAKGQPREPQVYTLPPCRDELTKNQVSLWCLVKGFYPSDIAVEWESNGQPENNYKTTPPVLDSDGSFFLYSKLTVDKSRWQQGNVFSCSVMHEALHNHYTQKSLSLSPGK
chain 2: DIQMTQSPSSLSASVGDRVTITCQASQDISNYLNWYQQKPGKAPKLLIYDASNLETGVPSRFSGSGSGTDFTFTISSLQPEDIATYFCQHFDHLPLAFGGGTKVEIKTVAAPSVFIFPPQAVVTQEPSLTVSPGGTVTLTCRSSTGAVTTSNYANWVQQKPDHLFRGLIGGTNKRAPGTPARFSGSLLGDKAALTISGAQPEDEAEYYCALWYSNLWVFGGGTKLTVLKRTVAAPSVFIFPPSDEQLKSGTASVVCLLNNFYPREAKVQWKVDNALQSGNSQESVTEQDSKDSTYSLSSTLTLSKADYEKHKVYACEVTHQGLSSPVTKSFNRGECDKTHTCPPCPAPPVAGPSVFLFPPKPKDTLMISRTPEVTCVVVDVSHEDPEVKFNWYVDGVEVHNAKTKPREEQYNSTYRVVSVLTVLHQDWLNGKEYKCKVSNKGLPSSIEKTISKAKGQPREPQVCTLPPSRDELTKNQVSLSCAVKGFYPSDIAVEWESNGQPENNYKTTPPVLDSDGSFFLVSKLTVDKSRWQQGNVFSCSVMHEALHNHYTQKSLSLSPGK
notes: also called IgFD-33 (ProA)
B3: IgFD-29(anti-CD3/EGFR) (bispecific antibody, human IgG1, kappa)
chain 1: EVQLVESGGGLVQPGGSLRLSCAASGFTFNTYAMNWVRQAPGKGLEWVARIRSKYNNYATYYADSVKDRFTISRDDSKNTLYLQMNSLRAEDTAVYYCVRHGNFGNSYVSWFAYWGQGTLVTVSSASTKGPSVFPLAPSSKSTSGGTAALGCLVKDYFPEPVTVSWNSGALTSGVHTFPAVLQSSGLYSLSSVVTVPSSSLGTQTYICNVNHKPSNTKVDKKVEPKSCDKTHTCPPCPAPPVAGPSVFLFPPKPKDTLMISRTPEVTCVVVDVSHEDPEVKFNWYVDGVEVHNAKTKPREEQYNSTYRVVSVLTVLHQDWLNGKEYKCKVSNKGLPSSIEKTISKAKGQPREPQVYTLPPCRDELTKNQVSLWCLVKGFYPSDIAVEWESNGQPENNYKTTPPVLDSDGSFFLYSKLTVDKSRWQQGNVFSCSVMHEALHNHYTQKSLSLSPGKGGSGGSGGGGSGGGGSQVQLQESGPGLVKPSETLSLTCTVSGGSVSSGDYYWTWIRQSPGKGLEWIGHIYYSGNTNYNPSLKSRLTISIDTSKTQFSLKLSSVTAADTAIYYCVRDRVTGAFDIWGQGTMVTVSS
chain 2: QAVVTQEPSLTVSPGGTVTLTCRSSTGAVTTSNYANWVQQKPDHLFRGLIGGTNKRAPGTPARFSGSLLGDKAALTISGAQPEDEAEYYCALWYSNLWVFGGGTKLTVLKRTVAAPSVFIFPPSDEQLKSGTASVVCLLNNFYPREAKVQWKVDNALQSGNSQESVTEQDSKDSTYSLSSTLTLSKADYEKHKVYACEVTHQGLSSPVTKSFNRGECDKTHTCPPCPAPPVAGPSVFLFPPKPKDTLMISRTPEVTCVVVDVSHEDPEVKFNWYVDGVEVHNAKTKPREEQYNSTYRVVSVLTVLHQDWLNGKEYKCKVSNKGLPSSIEKTISKAKGQPREPQVCTLPPSRDELTKNQVSLSCAVKGFYPSDIAVEWESNGQPENNYKTTPPVLDSDGSFFLVSKLTVDKSRWQQGNVFSCSVMHEALHNHYTQKSLSLSPGKGGSGGSGGGGSGGGGSDIQMTQSPSSLSASVGDRVTITCQASQDISNYLNWYQQKPGKAPKLLIYDASNLETGVPSRFSGSGSGTDFTFTISSLQPEDIATYFCQHFDHLPLAFGGGTKVEIK
notes: (ProA)/(CH1) = purification resin; also called IgFD-29(ProA); IgFD-29(CH1)
B4: IgFD-28(anti-CD3/EGFR) (bispecific antibody, human IgG1, kappa)
chain 1: EVQLVESGGGLVQPGGSLRLSCAASGFTFNTYAMNWVRQAPGKGLEWVARIRSKYNNYATYYADSVKDRFTISRDDSKNTLYLQMNSLRAEDTAVYYCVRHGNFGNSYVSWFAYWGQGTLVTVSSASTKGPSVFPLAPSSKSTSGGTAALGCLVKDYFPEPVTVSWNSGALTSGVHTFPAVLQSSGLYSLSSVVTVPSSSLGTQTYICNVNHKPSNTKVDKKVEPKSCDKTHTCPPCPAPPVAGPSVFLFPPKPKDTLMISRTPEVTCVVVDVSHEDPEVKFNWYVDGVEVHNAKTKPREEQYNSTYRVVSVLTVLHQDWLNGKEYKCKVSNKGLPSSIEKTISKAKGQPREPQVYTLPPCRDELTKNQVSLWCLVKGFYPSDIAVEWESNGQPENNYKTTPPVLDSDGSFFLYSKLTVDKSRWQQGNVFSCSVMHEALHNHYTQKSLSLSPGK
chain 2: QAVVTQEPSLTVSPGGTVTLTCRSSTGAVTTSNYANWVQQKPDHLFRGLIGGTNKRAPGTPARFSGSLLGDKAALTISGAQPEDEAEYYCALWYSNLWVFGGGTKLEIKRTVAAPSVFIFPPSDEQLKSGTASVVCLLNNFYPREAKVQWKVDNALQSGNSQESVTEQDSKDSTYSLSSTLTLSKADYEKHKVYACEVTHQGLSSPVTKSFNRGECDKTHTCPPCPAPPVAGPSVFLFPPKPKDTLMISRTPEVTCVVVDVSHEDPEVKFNWYVDGVEVHNAKTKPREEQYNSTYRVVSVLTVLHQDWLNGKEYKCKVSNKGLPSSIEKTISKAKGQPREPQVCTLPPSRDELTKNQVSLSCAVKGFYPSDIAVEWESNGQPENNYKTTPPVLDSDGSFFLVSKLTVDKSRWQQGNVFSCSVMHEALHNHYTQKSLSLSPGKGGSGGSGGGGSGGGGSDIQMTQSPSSLSASVGDRVTITCQASQDISNYLNWYQQKPGKAPKLLIYDASNLETGVPSRFSGSGSGTDFTFTISSLQPEDIATYFCQHFDHLPLAFGGGTKVEIKGGGGSGGGGSGGGGSQVQLQESGPGLVKPSETLSLTCTVSGGSVSSGDYYWTWIRQSPGKGLEWIGHIYYSGNTNYNPSLKSRLTISIDTSKTQFSLKLSSVTAADTAIYYCVRDRVTGAFDIWGQGTMVTVSS
notes: also called IgFD-28(ProA); IgFD-28(CH1)

Experiments:
EGFR on F98-EGFR cells [1] = target: T1, EGFR on F98-EGFR cells (UniProt P00533 25-1210, limits assumed); assay: flow cytometry on F98-EGFR cells; protein purified on CH1 resin
T1 construct: whole, on cells

[2] = target: T2, CD3 on T cells (Jurkat T cells; PBMC-T cells); assay: flow cytometry on Jurkat T cells; protein purified on CH1 resin
T2 construct: whole, on cells; the target is inferred from the anti-CD3 arm of the constructs
T2 sequence (P07766 23-207): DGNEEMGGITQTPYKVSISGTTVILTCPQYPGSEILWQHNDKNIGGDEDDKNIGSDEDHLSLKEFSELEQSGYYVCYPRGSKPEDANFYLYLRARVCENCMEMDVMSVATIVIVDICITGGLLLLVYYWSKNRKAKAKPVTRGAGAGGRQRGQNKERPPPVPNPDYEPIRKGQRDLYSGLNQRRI

EGFR on F98-EGFR cells [3] = target: T1, EGFR on F98-EGFR cells; assay: flow cytometry on F98-EGFR cells; protein purified on Protein A resin
[4] = target: T2, CD3 on T cells (Jurkat T cells; PBMC-T …); assay: flow cytometry on Jurkat T cells; protein purified on Protein A resin
EGFR on F98-EGFR cells [5] = target: T1, EGFR on F98-EGFR cells; assay: flow cytometry on F98-EGFR cells
Method: F98-EGFR cells (a DMEM containing 10% FBS, 200 μg/ml G418) were cultured. 2×10⁵ cells were washed by precooled PBS for 3 times, and blocked by 2% FBS (soluble to PBS). IgFD-8, IgFD-9, IgFD-10, IgFD-11, IgFD-18, IgFD-19, IgFD-25, IgFD-26 or IgFD-31 (aEGFR expressed in a laboratory as a control) was added and incubated for 2 h at 4° C. (cells were gently mixed during incubation), unbounded antibodies were washed by 2% FBS (soluble to PBS), and then the remaining cells were incubated by FITC anti-human IgGFc(KPL, Inc., MD) for 1 h at 4° C., and washed by 2% FBS (soluble to PBS) for flow cytometry analysis. As shown in FIG. 7 and Table 4, the anti-CD3/anti-EGFR heterodimers in different forms of fusion could bind to EGFR on F98-EGFR cells, and there was no significant difference in the binding capacity of different heterodimers to F98-EGFR.

EGFR on F98-EGFR cells [6] = target: T1, EGFR on F98-EGFR cells; assay: cell-based or functional assay

Binder	Kd (EGFR on F98-EGFR cells [1])	Kd [2]	Kd (EGFR on F98-EGFR cells [3])	Kd [4]	Kd (EGFR on F98-EGFR cells [5])	Promotion for the specific killing effect of PBMCs on target cells by heterodimers (EC50, pM); F98-EGFR cells, LDH assay; IgFD-29(CH1) (EGFR on F98-EGFR cells [6])	Promotion for the specific killing effect of PBMCs on target cells by heterodimers (EC50, pM); F98-EGFR cells, LDH assay; IgFD-29(ProA) (EGFR on F98-EGFR cells [6])	Promotion for the specific killing effect of PBMCs on target cells by heterodimers (EC50, pM); F98-EGFR cells, LDH assay; IgFD-28(CH1) (EGFR on F98-EGFR cells [6])	Promotion for the specific killing effect of PBMCs on target cells by heterodimers (EC50, pM); F98-EGFR cells, LDH assay; IgFD-28(ProA) (EGFR on F98-EGFR cells [6])
B1	12.8 nM	8.45 nM	19.6 nM	7.13 nM					
B2				50.7 nM	2.42 nM				
B3	78 nM	6.82 nM	77.5 nM	7.42 nM		338 pM	293 pM		
B4	2.86 nM	10.4 nM	3.81 nM	12.2 nM				11.4 pM	14.7 pM
